B1: ADP-ribosylation factor 6 (Homo sapiens), P62330 (parent)
chain: MGKVLSKIFGNKEMRILMLGLDAAGKTTILYKLKLGQSVTTIPTVGFNVETVTYKNVKFNVWDVGGQDKIRPLWRHYYTGTQGLIFVVDCADRDRIDEARQELHRIINDREMRDAIILIFANKQDLPDAMKPHEIQEKLGLTRIRDRNWYVQPSCATSGDGLYEGLTWLTSNYKS
partner: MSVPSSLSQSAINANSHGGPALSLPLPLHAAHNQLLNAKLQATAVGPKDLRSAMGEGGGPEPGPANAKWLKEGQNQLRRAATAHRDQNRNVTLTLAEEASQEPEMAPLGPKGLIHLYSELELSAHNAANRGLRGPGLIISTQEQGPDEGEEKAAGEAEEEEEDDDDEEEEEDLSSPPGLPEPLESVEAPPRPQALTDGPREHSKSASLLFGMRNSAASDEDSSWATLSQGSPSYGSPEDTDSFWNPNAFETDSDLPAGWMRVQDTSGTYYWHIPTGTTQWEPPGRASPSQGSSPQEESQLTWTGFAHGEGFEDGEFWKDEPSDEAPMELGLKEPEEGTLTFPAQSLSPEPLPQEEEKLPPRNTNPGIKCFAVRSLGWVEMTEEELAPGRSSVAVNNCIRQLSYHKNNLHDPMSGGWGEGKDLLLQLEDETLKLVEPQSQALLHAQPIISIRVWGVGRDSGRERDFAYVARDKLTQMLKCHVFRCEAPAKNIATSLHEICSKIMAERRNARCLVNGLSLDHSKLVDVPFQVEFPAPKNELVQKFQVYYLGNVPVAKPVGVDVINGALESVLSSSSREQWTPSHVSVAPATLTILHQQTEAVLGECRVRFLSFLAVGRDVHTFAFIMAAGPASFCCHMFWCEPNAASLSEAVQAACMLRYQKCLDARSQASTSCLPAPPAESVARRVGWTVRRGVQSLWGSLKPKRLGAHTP
B2: ADP-ribosylation factor 6 (Homo sapiens), P62330 (parent)
chain: B1 chain
partner: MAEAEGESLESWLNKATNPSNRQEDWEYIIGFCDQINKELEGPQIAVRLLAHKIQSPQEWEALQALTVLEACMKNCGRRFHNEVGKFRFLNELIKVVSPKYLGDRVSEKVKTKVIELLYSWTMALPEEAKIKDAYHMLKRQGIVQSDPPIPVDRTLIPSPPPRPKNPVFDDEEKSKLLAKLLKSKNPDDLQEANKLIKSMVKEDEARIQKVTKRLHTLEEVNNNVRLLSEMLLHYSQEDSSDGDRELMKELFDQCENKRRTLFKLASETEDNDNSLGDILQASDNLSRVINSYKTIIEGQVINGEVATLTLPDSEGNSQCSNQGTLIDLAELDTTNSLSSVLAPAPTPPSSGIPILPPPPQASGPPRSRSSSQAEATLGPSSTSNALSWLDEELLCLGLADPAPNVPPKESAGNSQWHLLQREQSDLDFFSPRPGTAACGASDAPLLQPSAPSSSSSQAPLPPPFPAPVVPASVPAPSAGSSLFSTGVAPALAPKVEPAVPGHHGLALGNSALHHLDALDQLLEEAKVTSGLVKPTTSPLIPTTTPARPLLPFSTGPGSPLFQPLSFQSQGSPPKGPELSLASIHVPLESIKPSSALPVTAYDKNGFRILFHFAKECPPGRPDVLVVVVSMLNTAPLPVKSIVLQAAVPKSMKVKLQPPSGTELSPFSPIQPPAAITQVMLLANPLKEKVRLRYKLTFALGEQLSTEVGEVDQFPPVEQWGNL

Variants of: B1
Details: with apbb1_human APBB1, O00213

Row | Variant | effect of a mutation on the interaction
1 | T27N | increasing interaction strength
2 | Q67L | disrupting interaction strength

Variants of: B2
Details: with gga3_human GGA3, Q9NZ52

Row | Variant | effect of a mutation on the interaction
3 | Q67L | increasing interaction strength
4 | T27N | decreasing interaction strength

— IntAct's records for PubMed 24056087
